Test results as given in article doi:10.1101/2022.12.30.522308 (bioRxiv, 2022).
Where two headings read alike, the source gives them in different places.

Key:
[1] = target: recombinant human IL-9 (R&D Systems) (Homo sapiens, UniProt P15248); experiment: BLI
[2] = target: T1, non-glycosylated binary hIL-9:hIL-9Rα complex (human, UniProt P15248 19-144; Q01113-1 40-261); experiment: ITC
[3] = target: T1, non-glycosylated binary hIL-9:hIL-9Rα …; experiment: ITC; remark: listed apart in the source
[4] = target: recombinant mouse IL-9 (R&D Systems) (mouse, UniProt P15247); experiment: BLI
Sequence of recombinant mouse IL-9 (R&D Systems) (P15247 19-144): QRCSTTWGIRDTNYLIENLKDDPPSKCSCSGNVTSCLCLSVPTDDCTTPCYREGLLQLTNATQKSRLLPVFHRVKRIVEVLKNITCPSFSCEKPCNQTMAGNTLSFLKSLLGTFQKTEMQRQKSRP

T1 sequence (P15248 19-144, chain 1 of 2): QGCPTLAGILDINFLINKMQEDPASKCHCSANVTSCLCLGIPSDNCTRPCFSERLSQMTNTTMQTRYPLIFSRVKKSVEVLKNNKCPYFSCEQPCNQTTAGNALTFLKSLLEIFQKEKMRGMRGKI
T1 sequence (Q01113 40-261, chain 2 of 2): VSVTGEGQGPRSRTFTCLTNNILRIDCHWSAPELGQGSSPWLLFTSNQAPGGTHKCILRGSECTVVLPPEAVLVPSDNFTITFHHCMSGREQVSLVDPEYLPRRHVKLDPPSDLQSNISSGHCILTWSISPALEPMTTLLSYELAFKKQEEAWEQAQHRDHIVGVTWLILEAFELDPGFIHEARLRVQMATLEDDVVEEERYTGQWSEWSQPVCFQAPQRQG
Sequence of recombinant human IL-9 (R&D Systems) (P15248 19-144): as the sequence (P15248 19-144, chain 1 of 2) above

B1: anti-hIL-9 monoclonal antibody 7D6 (antibody, V domains shown)
VH: QLQLVESGPGLVKPSQTLSLTCTVSGGSITTGYYAWSWIRQPPGKGLEWMGFIARDGSTSYSPSLKSRTSISRDTSKNQFSLQLSSVTPEDTAVYYCARAGEGRSWYPGYYYGMDYWGKGTLVTVSS
VL: QAVVTQEPSLSVSPGGTVTLTCGLSSGSVTSSNYPGWYQQTPGQAPRVLIYNTNSRHSGVPSRYSGFISGNKAALTITGAEPEDEADYYCHLHKGSTGVFGGGTHLTVL
[1]
  Kd: 1.8 nM

B2: trimmed extracellular domain of human common gamma chain (hγc, residues 56-254), produced in Sf9 cells (receptor, UniProt P31785-1 56-254, looked up)
chain: PLPEVQCFVFNVEYMNCTWNSSSEPQPTNLTLHYWYKNSDNDKVQKCSHYLFSEEITSGCQLQKKEIHLYQTFVVQLQDPREPRRQATQMLKLQNLVIPWAPENLTLHKLSESQLELNWNNRFLNHCLEHLVQYRTDWDHSWTEQSVDYRHKFSLPSVDGQKRYTFRVRSRFNPLCGSAQHWSEWSHPIHWGSNTSKEN
[2]
  Kd: 2500 nM
[3]
  Kd: 9000 nM

B3: anti-mIL-9 monoclonal antibody 35D8 (antibody, V domains shown)
VH: QVQLVESGPGLVQPSQTLSLTCTVSGGSITTSYYDWSWIRQPPGKGLEWMGAIAYSGNAYYSPSLKSRTSISRDTSKNQFTLQLSSVTPEDTAVYYCAREDHYSDTHGWNDYWGQGTQVTVSS
VL: ALTQPSAVSVSLGQTARITCQGGSIGNFGATWYQQKPGQAPVLLSLGEHSRPSGIPERFSGSKSGGTATLTISGAQAEDEADYYCQSFDYIGNDHVFGGGTHLTVL
[4]
  binding result: binds

B4: anti-hIL-9 monoclonal antibody 6E2 (antibody, V domains shown)
VH: QVQLVESGGGLVQPGGSLRLSCAASGFTFSSSAMGWVRQAPGKGLEWVSTIVNSITTTYYADSVKGRFTISTDNAKNTLYLQIDSLKSEDTAVYYCGSLAGPYYDYWGQGTQVTVSS
VL: ALTQPSTVSVSLGQTARITCQGGSLGSYDAHWYQQKPGQAPVLVIHDNNSRPSGIPERFTGSRSGETATLTISGAQTEDEADYYCQSYDSTSDALVFGGGTQLTVL
[1]
  Kd: 0.24 nM
